Article PMC10514341, “Organisation of the orthobunyavirus tripodal spike and the structural changes induced by low pH and K^+ during entry” (Nature Communications, 2023)

B1: Bunyamwera virus (BUNV) glycoprotein Gn (natural protein, UniProt P04505 17-302, looked up)
chain: SPVITRCFHGGQLIAERKSQTSISEFCIKDDVSMLKSEIVYTKNDTGIFGHSKVFRHWTITDWKACNPVVTAGGSINVIEVDKNLNLVTRNYVCTGDCTITVDRKNAQIIFQTDKLNHFEVTGTTISTGWFKSKASVTLDRTCEHIKVSCGKKTLQFHACFKQHMSCVRFLHRSILPGSMAISICQNIELIIITILALCIFIIMIILTKTYICYVLIPVFMPIAFAYGWAYNRSCKKCTCCGLAYHPFTNCGSYCVCGSKFETSDRMRMHRESGLCQGFKSLRVAR
modifications: N-linked glycan at N60
notes: Glycoprotein Gn of Bunyamwera virus, cut from the M segment polyprotein (Gn-NSm-Gc); ectodomain 17-205; membrane-anchored in the virion envelope; Native Gn in the envelope of purified virions; also called BUNV Gn
B2: Bunyamwera virus (BUNV) glycoprotein Gc (natural protein)
chain: EEDCWKNEELKEDCVGPLIAPKDCTDKDHKTYLSEASLLATAKKITQVDAENVEILGKTMESAIRVIERQKTYHRMHLLEAVFLNKHCDYYKMFEHNSGYSQVKWRMMIKTQHFDICALQANSPFCAQCIADNSCAQGSWEFDTHMNSTYSSKVDNFKHDFSLFLRIFEAAFPGTAYVHLLTNIKEKKPYQAVSMIEKIKKKFPNNKLLIGYLDFGKYLLGLSHASTYELQQRQLDKLYQPTELTRSGGQQTSLANSVVGQATKECKKYKDVSCLSPRFGIPLEDLISCCDQPNYNIYKKPKKVYKAHDKEETWCINDQHCLVDFVPAEADTVEKLKPMKCWLVDPGKNDDVYSIAIKTCRVVDKGVCTVNSQKWNIIKCDSGPLYYSDHIPGEDTGNDIGHYCVSAGCKTDRYPINPDVVTDCVWEFTSRKSQYIGKISMQSLEDYEKALTDRLTHTLETYSFAPLENLPHIKPVYKYITAQGVENSDGIEGAFITASIPAAGGTSIGYNVRSKDGFPLLDLIVFVKSAVIKSTYNHIYDTGPTISINTKHDEHCTGQCPSNIEHEANWLTFSQERTSRWGCEEFGCLAVNTGCVFGSCQDVIRPETKVYRKAVDEVVILTVCITYPGHTFCTEINAIEPKITEEIELQFKTVDTKTLPYIVAVNNHKLYSGQINDLGTFGQMCGNVQKTNSSILGTGTPKFDYTCHGASRKDIIVRRCYNNNFDSCKLLKEETQLIFNDDHDTITVYNTNHLIGELAIKLILGDIQYKLFTETLDLQIDAKCVGCPDCFESYSCNFQIVSNIDTICSLEGPCDTFHNRISIKAMQQNYAVKLSCQKDPRPSGTFKICNREYTVVFHTVAKDDKIEINVGDQTSFIKEKDDRCKTWLCRVRDEGISVIFEPIKAFFGSYFSIFFYIIVVVVVGFLIIYIFMPMFMKLKEVLKANEKLYLQEIKQK
modifications: N-linked glycan at N624
notes: Glycoprotein Gc of Bunyamwera virus, cut from the M segment polyprotein (Gn-NSm-Gc); ectodomain 478-1382; head, stalk and floor (fusion domain) regions; membrane-anchored in the virion envelope; Native Gc in the envelope of purified virions; also called BUNV Gc

Target: the molecule itself
Experiment: cryo-EM structure; cryo-electron tomography and subtomogram averaging (PEET, C3 symmetry) of glycoprotein spikes on purified BUNV virions, pH 7.3/no K+, 2 hr at 37 °C; tripod average ~16 Å, floor average ~13 Å (GS-FSC); X-ray head/stalk structures and an AlphaFold Gn-Gc model fitted into the maps

Protein | stoichiometry N
B1 | 3
B2 | 3
